One molecule from article PMC7195446, “The RhHB1/RhLOX4 module affects the dehydration tolerance of rose flowers (Rosa hybrida) by fine-tuning jasmonic acid levels” can be followed below.

The target of this data set is GST-RhHB1 (Rosa hybrida, UniProt A0A096YDU1 1-243). As to the kind of experiment: EMSA; 25 pM probe (so in the source), 3 ug protein; signal weakened by 10x and 100x unlabeled probe; Pierce EMSA kit, per manufacturer's instructions; buffer, salt, pH and temperature not given. The following applies: protein: recombinant; tags: GST (N-terminal, pGEX-2T); chain copies: 2; label: biotin (5' of S3); blunt.
Sequence of GST-RhHB1 (A0A096YDU1 entry or part of it): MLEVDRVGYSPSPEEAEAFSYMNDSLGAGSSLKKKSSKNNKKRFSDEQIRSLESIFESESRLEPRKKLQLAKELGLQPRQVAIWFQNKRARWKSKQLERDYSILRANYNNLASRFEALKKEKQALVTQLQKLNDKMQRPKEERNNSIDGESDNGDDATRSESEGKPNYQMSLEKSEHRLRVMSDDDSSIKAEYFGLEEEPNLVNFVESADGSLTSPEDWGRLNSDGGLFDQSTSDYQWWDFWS

B1: RhLOX4 promoter probe (-1270 to -1303) (dsDNA)
DNA 1: AAGAGAATATTTTGAAATAATATTAGGAGTCTCT
DNA 2: AGAGACTCCTAATATTATTTCAAAATATTCTCTT
B1: the binding result is given as “binds”.
